Data as given in US20260242732A1.
Where two headings read alike, the source gives them in different places.

B1: HL (Crizanlizumab) scFv synNotch receptor (receptor, part only; not given: Myc tag, Notch core, Gal4, part only)
chain, part: QVQLVQSGAEVKKPGASVKVSCKVSGYTFTSYDINWVRQAPGKGLEWMGWIYPGDGSIKYNEKFKGRVTMTVDKSTDTAYMELSSLRSEDTAVYYCARRGEYGNYEGAMDYWGQGTLVTVSSGGGGSGGGGSGGGGSDIQMTQSPSSLSASVGDRVTITCKASQSVDYDGHSYMNWYQQKPGKAPKLLIYAASNLESGVPSRFSGSGSGTDFTLTISSLQPEDFATYYCQQSDENPLTFGGGTKVEIKR
B2: LH (Crizanlizumab) scFv synNotch receptor (receptor, part only; not given: Myc tag, Notch core, Gal4, part only)
chain, part: DIQMTQSPSSLSASVGDRVTITCKASQSVDYDGHSYMNWYQQKPGKAPKLLIYAASNLESGVPSRFSGSGSGTDFTLTISSLQPEDFATYYCQQSDENPLTFGGGTKVEIKRGGGGSGGGGSGGGGSQVQLVQSGAEVKKPGASVKVSCKVSGYTFTSYDINWVRQAPGKGLEWMGWIYPGDGSIKYNEKFKGRVTMTVDKSTDTAYMELSSLRSEDTAVYYCARRGEYGNYEGAMDYWGQGTLVTVSS

Legend:
[1] = target: recombinant human P-selectin (human) (UniProt P16109)
UniProt P16109, sequence (P16109 42-771 limits assumed): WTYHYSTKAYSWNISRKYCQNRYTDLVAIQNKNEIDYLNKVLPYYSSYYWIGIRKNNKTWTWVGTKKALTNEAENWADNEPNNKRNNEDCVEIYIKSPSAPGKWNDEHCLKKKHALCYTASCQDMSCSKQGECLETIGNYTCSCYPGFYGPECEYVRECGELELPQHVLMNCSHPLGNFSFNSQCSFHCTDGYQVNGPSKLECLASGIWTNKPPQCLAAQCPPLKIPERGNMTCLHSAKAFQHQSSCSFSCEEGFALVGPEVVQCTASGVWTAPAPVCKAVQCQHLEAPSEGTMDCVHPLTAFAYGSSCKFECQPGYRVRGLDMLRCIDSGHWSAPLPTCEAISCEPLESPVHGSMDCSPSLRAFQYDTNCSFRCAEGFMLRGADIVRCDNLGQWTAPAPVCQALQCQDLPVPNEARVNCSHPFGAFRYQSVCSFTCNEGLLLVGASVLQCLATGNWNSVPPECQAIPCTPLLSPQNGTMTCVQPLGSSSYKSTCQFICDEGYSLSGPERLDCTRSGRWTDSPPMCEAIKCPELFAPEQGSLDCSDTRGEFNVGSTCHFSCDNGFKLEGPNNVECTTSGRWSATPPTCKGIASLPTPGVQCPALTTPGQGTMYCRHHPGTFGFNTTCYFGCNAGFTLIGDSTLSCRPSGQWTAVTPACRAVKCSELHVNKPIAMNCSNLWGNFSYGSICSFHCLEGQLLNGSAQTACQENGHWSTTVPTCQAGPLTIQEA

[2] = target: recombinant human P-selectin (human) (UniProt P16109); remark: listed apart in the source

| Binder | Freq. of mCherry+ (BFP+ cells) at 1 ng/uL rhp-selectin [1] | Freq. of mCherry+ (BFP+ cells) at 10 ng/uL rhp-selectin [1] | Freq. of mCherry+ (BFP+ cells) at 25 ng/uL rhp-selectin [1] | Freq. of mCherry+ (BFP+ cells) at 50 ng/uL rhp-selectin [1] | Freq. of mCherry+ (BFP+ cells) at 100 ng/uL rhp-selectin [1] | Freq. of mCherry+ (BFP+ cells) at 1 ng/uL rhp-selectin [2] | Freq. of mCherry+ (BFP+ cells) at 10 ng/uL rhp-selectin [2] | Freq. of mCherry+ (BFP+ cells) at 25 ng/uL rhp-selectin [2] | Freq. of mCherry+ (BFP+ cells) at 50 ng/uL rhp-selectin [2] | Freq. of mCherry+ (BFP+ cells) at 100 ng/uL rhp-selectin [2] |
| --- | --- | --- | --- | --- | --- | --- | --- | --- | --- | --- |
| B1 | 16.2% | 33% | 32.2% | 25.4% | 18.4% |  |  |  |  |  |
| B2 |  |  |  |  |  | 2.1% | 13.2% | 15.6% | 15.8% | 12.1% |
